In US20260250410A1 (SICHUAN HUIYU PHARMACEUTICAL, published 2026):

Tests used:
[1] = target: T1, HuCDCP1-C (human, UniProt Q9H5V8 30-667); assay: SPR (Caterra), antigen immobilized
T1 construct: range 30-667; expressed in HEK-293T, purified by Fc/his tag; also called human CDCP1-C; full-length extracellular domain of human CDCP1; not shown: Fc or his tag
T1 sequence (looked up): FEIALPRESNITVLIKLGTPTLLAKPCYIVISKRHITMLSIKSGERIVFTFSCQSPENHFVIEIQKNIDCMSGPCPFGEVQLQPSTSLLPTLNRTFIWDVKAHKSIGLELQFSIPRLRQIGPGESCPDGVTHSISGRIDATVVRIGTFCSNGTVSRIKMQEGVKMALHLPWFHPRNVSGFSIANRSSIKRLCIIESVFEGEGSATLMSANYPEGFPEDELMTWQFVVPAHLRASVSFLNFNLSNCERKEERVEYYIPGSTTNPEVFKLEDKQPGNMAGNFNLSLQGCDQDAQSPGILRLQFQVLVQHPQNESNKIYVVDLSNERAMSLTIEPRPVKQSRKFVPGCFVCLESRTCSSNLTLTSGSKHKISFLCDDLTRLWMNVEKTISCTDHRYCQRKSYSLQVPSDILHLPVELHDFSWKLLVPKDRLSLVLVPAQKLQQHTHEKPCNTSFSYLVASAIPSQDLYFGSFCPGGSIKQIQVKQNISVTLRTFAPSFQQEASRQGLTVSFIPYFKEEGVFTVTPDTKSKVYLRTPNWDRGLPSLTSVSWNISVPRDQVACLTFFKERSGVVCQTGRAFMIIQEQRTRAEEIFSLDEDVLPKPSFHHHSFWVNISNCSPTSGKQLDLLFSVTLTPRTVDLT
Description: The humanized anti-CDCP1 antibodies obtained from Example 11 were subjected to gene cloning, constructed into pTT5 expression vector for a small amount of expression in CHO cells (Expi-CHOS: Gibco A29127), and purified with an Fc affinity column (AT Protein A Diamond Plus. No. AA402312). Antibody purity was analyzed by HPLC and determined by Nanodrop. High-throughput affinity assay was carried out for a small amount of antibodies by Caterra.

[2] = target: T2, human CDCP1 on tumor cells (human, UniProt Q9H5V8 30-836); assay: flow cytometry, MDA-MB-231 cells
T2 construct: whole, on cells; cell line is named under assay or readout
T2 sequence (looked up): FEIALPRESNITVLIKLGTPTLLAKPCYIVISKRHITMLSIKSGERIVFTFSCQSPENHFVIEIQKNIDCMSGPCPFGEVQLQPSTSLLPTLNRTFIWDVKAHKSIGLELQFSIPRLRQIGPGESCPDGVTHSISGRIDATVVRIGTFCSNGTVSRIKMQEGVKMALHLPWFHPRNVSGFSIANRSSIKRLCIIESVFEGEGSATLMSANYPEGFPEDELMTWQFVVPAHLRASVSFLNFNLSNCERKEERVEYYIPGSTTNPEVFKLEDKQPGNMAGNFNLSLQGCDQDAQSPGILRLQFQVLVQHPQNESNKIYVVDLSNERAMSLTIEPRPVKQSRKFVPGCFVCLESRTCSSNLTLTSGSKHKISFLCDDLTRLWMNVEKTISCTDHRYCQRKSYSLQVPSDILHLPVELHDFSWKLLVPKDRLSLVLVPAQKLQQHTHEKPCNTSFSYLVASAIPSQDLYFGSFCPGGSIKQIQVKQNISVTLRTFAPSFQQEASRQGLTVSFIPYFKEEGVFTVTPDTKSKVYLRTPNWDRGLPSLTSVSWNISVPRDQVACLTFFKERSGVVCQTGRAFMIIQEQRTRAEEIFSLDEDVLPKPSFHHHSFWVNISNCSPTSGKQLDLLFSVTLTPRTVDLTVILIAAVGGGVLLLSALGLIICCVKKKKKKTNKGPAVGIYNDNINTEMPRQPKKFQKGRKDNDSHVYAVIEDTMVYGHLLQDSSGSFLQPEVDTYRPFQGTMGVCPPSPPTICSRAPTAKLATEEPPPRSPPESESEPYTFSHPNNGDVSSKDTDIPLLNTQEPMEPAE
Description: Referring to the method of Example 4, MDA-MB-231 cells were taken and subjected to digestion with 5 mM EDTA, 2×10⁴ tumor cells were added respectively per well, and 50 μL (PBS+2% FBS) were added; after blocking at room temperature with Fc blocker for 10 mins, an anti-CDCP1 humanized antibody at a final concentration of 200 nM was added. The obtained mixture was subjected to a 3-fold serial dilution across 8 concentration points, incubated at 4° C. for 30 mins, centrifuged and washed, and then a secondary antibody (PE anti-human IgG Fc Antibody, Biolegend, 410708) was added, then detection was performed using a flow cytometer. Geo-MFI (geometric mean fluorescence signal value) was used as the preliminary signal of antibody-cell binding, curve fitting was performed using graphpad, and the binding capacity of antibody to cells was calculated.

[3] = target: T2, human CDCP1 on tumor cells; assay: flow cytometry, PC3 cells
Description: Flow cytometry was used to detect the binding capacity of antibody to tumor cells. […] 2.0×10⁴ tumor cells were added per well, respectively, and 50 μL (PBS+2% FBS) were added, and after blocking at room temperature with an Fe blocker (Human TruStain FcX™, Biolegend, 422302) for 10 mins, an anti-CDCP1 murine monoclonal antibody at a final concentration of 200 nM was added. The obtained mixture was subjected to a 3-fold serial dilution across 8 concentration points, and incubated at 4° C. for 30 mins, and then incubated with a secondary antibody (PE anti-human IgG Fc Antibody, Biolegend, 410708), detection was performed using a flow cytometer.

B1: 1CP-124 (antibody, human IgG1, kappa, V domains shown)
VH: QVQLVQSGAEVKKPGASVKVSCKASGYNFISYWLHWVRQAPGQGLEWMGGIYPGNTDTTYNQKFKGRVTMTRDTSTSTVYMELSSLRSEDTAVYYCIRYDYDRGMDYWGQGTLVTVSS
VL: DIQMTQSPSSLSASVGDRVTITCRASEDIYYRLAWYQQKPGKAPKLLISGATALETGVPSRFSGSGSGKDYTFTISSLQPEDIATYYCQHYWNIPWTFGQGTKVEIKR
notes: humanized 3C11, human IgG1 kappa
- Kd [1]: 0.0993 nM
- koff [1]: 1.47e-05 s⁻¹
- kon [1]: 148000 M⁻¹ s⁻¹
- EC50 [2]: 0.38 nM

B2: 5B8 (antibody, V domains shown)
VH: EVQLKESGGGLVQPGGSLRISCATSGLTFTHYHMSWVRQPPGKAPEWLAIIRNKAYGYTTDYSASVRGRFTISRDDSQSILYLQMNTLRAEDSATYYCVREGGYGYDGTFAYWGQGTTVTVSS
VL: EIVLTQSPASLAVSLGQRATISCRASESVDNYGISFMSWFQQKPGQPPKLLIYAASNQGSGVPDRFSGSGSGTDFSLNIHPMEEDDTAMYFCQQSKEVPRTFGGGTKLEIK
notes: murine hybridoma mAb
- EC50 [3]: 0.91 nM

B3: 8C9 (antibody, V domains shown)
VH: EVQLKESGGGLVQPGGSLRISCATSGLTFTHYHMSWVRQPPGKAPEWLAIIRNKAYGYTTDYSASVRGRFTISRDDSQSILYLQMNTLRPEDSATYYCVREGGYGYDGTFAYWGQGTTVTVSS
VL: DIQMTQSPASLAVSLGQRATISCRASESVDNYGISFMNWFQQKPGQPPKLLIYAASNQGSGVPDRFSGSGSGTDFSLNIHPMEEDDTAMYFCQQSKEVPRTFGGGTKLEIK
notes: murine hybridoma mAb
- EC50 [3]: 0.4 nM

B4: 3F1A11 (antibody, V domains shown)
VH: EVKLVESGPGLVKPSQSLSLTCTVTGYSITSDYAWNWIRQFPGNKLEWMGYISYNTYTSYNPSLKSRISVTRDTSKNQFFLQLKSVTIEDTATYFCAGGDYYGTGAVDYWGQGTTVTVSS
VL: EIVLTQSPLSLPVSLGDQASISCRSRQTLVHTNGNTYLDWYLQKPGQSPKLLIYKVSIRFSGVPDRFSGSRSGTDFTLKISRVEAEDLGIYYCFQGSHVPWTFGGGTKLEIK
notes: murine hybridoma mAb
- EC50 [3]: 0.41 nM

B5: 8E5 (antibody, V domains shown)
VH: EVQLKESGPELKKPGETVKISCKASGYTLTDFSMHWLKQAPGKGLKWMGWINTETGAPTYADDFKGRFALSLDTSANTAYLQINNLKNEDTATYFCSRGRDYDPHFDYWGQGTTVTVSS
VL: EIVLTQSPATLSVTPGDRVSLSCRASQSISDFLHWYQQRSHESPRLLIKYASQSISGIPSRFGGSGSGSDFTLNINTVEPEDVGMYYCQSAHSFPYTFGGGTKLEIK
notes: murine hybridoma mAb; also called 8ES
- EC50 [3]: 0.63 nM

B6: 1CP-117 (antibody, human IgG1, kappa, V domains shown)
VH: QVQLVQSGSELKKPGASVKVSCKASGYTLTDFSMHWVRQAPGQGLEWMGWINTETGAPTYADDFKGRFVLSLDTSVSTAYLQISSLKAEDTAVYYCSRGRDYDPHFDYWGQGTLVTVSS
VL: EIVLTQSPATLSLSPGERATLSCRASQSISDFLHWYQQKPGQSPRLLIKYASQSISGIPARFSGSGSGSDFTLTISSVEPEDFAVYYCQSAHSFPYTFGQGTKLEIKR
notes: humanized 8E5, human IgG1 kappa
- Kd [1]: 0.259 nM
- koff [1]: 3.93e-05 s⁻¹
- kon [1]: 152000 M⁻¹ s⁻¹
- EC50 [2]: 1.3 nM

B7: 1CP-121 (antibody, human IgG1, kappa, V domains shown)
VH: QVQLVQSGSELKKPGASVKVSCKASGYTLTDFSMHWVRQAPGQGLEWMGWINTETGAPTYADDFKGRFVLSLDTSVSTAYLQISSLKAEDTAVYYCSRGRDYDPHFDYWGQGTLVTVSS
VL: EIVLTQSPATLSLSPGERATLSCRASQSISDFLHWYQQKSGQSPRLLIKYASQSISGIPARFSGSGSGSDFTLTISSVEPEDFAVYYCQSAHSFPYTFGQGTKLEIKR
notes: as for B6
- Kd [1]: ≤ 0.0675 nM
- koff [1]: ≤ 1e-05 s⁻¹
- kon [1]: 148000 M⁻¹ s⁻¹
- EC50 [2]: 1.37 nM

B8: 6A7 (antibody, V domains shown)
VH: EVQLKESGAELVRPGASVKVSCKASGYSFTSYWMNWVKQRPGQGLEWIGMIHPSDSETKLNQKFRDRASLTVDKSSSTAYMQLSSPTSEDSAVYYCTINYESFYYAMDYWGQGTTVTVSS
VL: DIVMTQSPASLAVSLGQRATISCRASKSVSTSGYSYMHWYQQKPGQPPKLLLYLASNLESGVPARFSGSGSGADFTLNIHPVEEEDAATYYCLHSRELPYTFGGGTKLEIK
notes: murine hybridoma mAb
- EC50 [3]: 1.35 nM

B9: 3C11 (antibody, V domains shown)
VH: EVQLQQSGTVLARPGASVKMSCKASGYNFISYWLHWIKQRPGQGLEWIGGIYPGNTDTTYNQKFKGKAKVTAVTSATTAYMELSSLTNEDSAVYYCIRYDYDRGMDYWGQGTTVTVSS
VL: DIQMTQSPSSFSVSLGDRVTITCRASEDIYYRLAWYQQKPGNAPRLLISGATALETGVPSRFSGSGSGKDYTLSITSLQTEDVATYYCQHYWNIPWTFGGGTKLEIK
notes: murine hybridoma mAb
- EC50 [3]: 0.23 nM

B10: 3B12H5 (antibody, V domains shown)
VH: EVQLQQSGTVLARPGASVKMSCKASGYSFTIYWVHWVKQRPGQGLEWIGAVYPGNDDTSYNQNFKGKAKLTAVTSATTAYMELSSLTIDDSAVYYCTRHTYDEVFDYWGQGTTVTVSS
VL: DIVMTQSPSSLSVSLGDRVTITCKASEDIYYRLAWYQQKPGNAPRLLISGGTNLEAGIPSRFSGSGSGKDYTLSITSLQTEDVAIYYCQHYWNTPWTFGGGTKLEIK
notes: murine hybridoma mAb; also called 3B12HS
- EC50 [3]: 0.55 nM

B11: 10D2 (antibody, V domains shown)
VH: EVQLQQSGPELKKPGETVKISCKASGYTFTDYSMHWVKQAPGKGLKWMGWINTETGQPTYADDFKGRFAFSLETSASSAYLQINNLKNEDTATYFCTRTFYYDYVGDYWGQGTTVTVSS
VL: DIVMTQSHKFMSTSVGDRVSITCKASQDVSTAVAWYRQKPGQSPKLLIYWASTRHTGVPDRLTGSGSGTDFALTINSVQAEDLALYYCQQHSSTPYTFGGGTKLEIK
notes: murine hybridoma mAb
- EC50 [3]: 2.54 nM

B12: 12E6 (antibody, V domains shown)
VH: EVQLKESGPGILQPSQTLSLTCSFSGFSLSTSGMGVGWIRQPSGKGLEWLAHIWWDDVKLYNPALKSRLTISKETSNNQVFLKIASVDAADTATYYCARIDHGYGSNYWDFDVWGAGTTVTVSS
VL: DIVMTQAAPSVPVTPGGSVSISCRSTKSLLHSDGKTYLYWFLQRPGQSPQLLIYRMSNLASGVPDRFSGSGSGTAFTLRISRVEAEDVGVYYCMQHLEYPFTFGSGTKLEIK
notes: murine hybridoma mAb
- EC50 [3]: 10.1 nM

B13: G10F6 (antibody, V domains shown)
VH: EVKLVESGPGILQPSQTLSLTCSFSGFSLSTSGMGVSWVRQPSGKGLEWLAHIYWDDDKRYNPSLKGRLTISKDTPRNQVFLEITSVDTTDTATYYCARVPGNWDEDAMDYWGQGTTVTVSS
VL: DIQMTQSPLSLPVSLGDQASISCRSSQNIVHTNGNTYLEWYLQKVGQSPKLLIYKVSNRFSGVPDRFSGSGSGTDFTLKISRVEAEDLGVYYCFQGSHVPYTFGGGTKLEIK
notes: murine hybridoma mAb
- EC50 [3]: 0.23 nM

B14: 14A10C5 (antibody, V domains shown)
VH: EVKLVESGPGILQPSQTLSLTCSFSGFSLSTSGMGVSWIRQPSGKGLEWLAHIYWDDEKRYNPSLKSRLTISKDTSSNQVFLKITSVDTADTATYYCAREGSANWEAMDYWGQGTTVTVSS
VL: DIVMTQAALSLPVSLGDQASISCRSSQNIVYTNGITYLEWYLQKPGQSPKLLIYKVSNRFSGVPDRFSGSGSATDFTLKISRVEAEDLGVYYCFQSSHVPWTFGGGTKLEIK
notes: murine hybridoma mAb; also called 14A10CS
- EC50 [3]: 0.1 nM
